Measured values: the DeepSol protein solubility set

Assay: soluble on expression in E. coli; label from the status in PepcDB or PDB records

Soluble on expression in E. coli, soluble:
GMNSDIIVADFWKNNEEILTDFDKDSFCESWTENEMWSIEFKVAQTPKNAHCYSFLDYESSVYFRGQEFVVKQLSHDAVGKTLSKDIRAPHIYYTCQDGRQDDAITGSFTLEQCLTHIFKTDNRGFSWEIIDPSNILEKVQQENFGNNNYLTLIDQLLDDYGVVVIPDNRHLVFKPREIYGAKTENFIRYKYNTDEASFDIDTLSLKTKIKGYGKVDSNGNNYFSPITYTSPEVEKWGIRWQEPVSDERYTVAGNMQRRLKLELQDYPATTGSVILKNDYECEKGDYVLFIYEPLGIDYDVQIVAYKKYPFTIKAPEITLSNNKKSIVSIMAQLAKVLKGAK
EMEPEEERIRYSQRLRGTMRRRYEDDGISDDEIEGKRTFDLEEKLHTNKYNANFVTFMEGKDFNVEYIQRGGLRDPLIFKNSDGLGIKMPDPDFTVNDVKMCVGSRRMVDVMDVNTQKGIEMTMAQWTRYYETPEEEREKLYNVISLEFSHTRLENMVQRPSTVDFIDWVDNMWPRHLKESQTESTNAILEMQYPKVQKYCLMSVRGCYTDFHVDFGGTSVWYHIHQGGKVFWLIPPTAHNLELYENWLLSGKQGDIFLGDRVSDCQRIELKQGYTFVIPSGWIHAVYTPTDTLVFGGNFLHSFNIPMQLKIYNIEDRTRVPNKFRYPFYYEMCWYVLERYVYCITNRSHLTKEFQKESLSMDLELNGLESGNGDEEAVDREPRRLSSRRSVLTSPVANGVNLDYDGLGKTCRSLPSLKKTLAGDSSSDCSRGSHNGQVWDPQCAPRKDRQVHLTHFELEGLRCLVDKLESLPLHKKCVPTGIEDEDALIADVKILLEELANSDPKLALTGVPIVQWPKRDKLKFPTRPKVRVPTIPITKPHTMKPAPRLTPVRPAAASPIVSGARRRRVRCRKCKACVQGECGVCHYCRDMKKFGGPGRMKQSCVLRQCLAPRLPHSVTCSLCGEVDQNEETQDFEKKLMECCICNEIVHPGCLQMDGEGLLNEELPNCWECPKCYQEDSSEKAQKRKMEESDEEAVQAKVLRPLRSCDEPLTPPPHSPTSMLQLIHDPVSPRGMVTRSSPGAGPSDHHSASRDERFKRRQLLRLQATERTMVREKENNPSGKKELSEVEKAKIRGSYLTVTLQRPTKELHGTSIVPKLQAITASSANLRHSPRVLVQHCPARTPQRGDEEGLGGEEEEEEEEEEEDDSAEEGGAARLNGRGSWAQDGDESWMQREVWMSVFRYLSRRELCECMRVCKTWYKWCCDKRLWTKIDLSRCKAIVPQALSGIIKRQPVSLDLSWTNISKKQLTWLVNRLPGLKDLLLAGCSWSAVSALSTSSCPLLRTLDLRWAVGIKDPQIRDLLTPPADKPGQDNRSKLRNMTDFRLAGLDITDATLRLIIRHMPLLSRLDLSHCSHLTDQSSNLLTAVGSSTRYSLTELNMAGCNKLTDQTLIYLRRIANVTLIDLRGCKQITRKACEHFISDLSINSLYCLSDEKLIQKIS
MSISDTVKRAREAFNSGKTRSLQFRIQQLEALQRMINENLKSISGALASDLGKNEWTSYYEEVAHVLEELDTTIKELPDWAEDEPVAKTRQTQQDDLYIHSEPLGVVLVIGAWNYPFNLTIQPMVGAVAAGNAVILKPSEVSGHMADLLATLIPQYMDQNLYLVVKGGVPETTELLKERFDHIMYTGSTAVGKIVMAAAAKHLTPVTLELGGKSPCYVDKDCDLDVACRRIAWGKFMNSGQTCVAPDYILCDPSIQNQIVEKLKKSLKDFYGEDAKQSRDYGRIINDRHFQRVKGLIDNQKVAHGGTWDQSSRYIAPTILVDVDPQSPVMQEEIFGPVMPIVCVRSLEEAIQFINQREKPLALYVFSNNEKVIKKMIAETSSGGVTANDVIVHITVPTLPFGGVGNSGMGAYHGKKSFETFSHRRSCLVKSLLNEEAHKARYPPSPAKMPRH
MLLREINRYCKEKATGKRIYAVPKLWIPGFFKKFDEKSGRCFVDPYELGAEITDWILNQSREWDYSQPLSFLKGEKTPDWIKRSVVYGSLPRTTAAYNHKGSGYYEENDVLGFREAGTFFKMMLLLPFVKSLGADAIYLLPVSRMSDLFKKGDAPSPYSVKNPMELDERYHDPLLEPFKVDEEFKAFVEACHILGIRVILDFIPRTAARDSDLIREHPDWFYWIKVEELADYTPPRAEELPFKVPDEDELEIIYNKENVKRHLKKFTLPPNLIDPQKWEKIKREEGNILELIVKEFGIITPPGFSDLINDPQPTWDDVTFLRLYLDHPEASKRFLDPNQPPYVLYDVIKASKFPGKEPNRELWEYLAGVIPHYQKKYGIDGARLDMGHALPKELLDLIIKNVKEYDPAFVMIAEELDMEKDKASKEAGYDVILGSSWYFAGRVEEIGKLPDIAEELVLPFLASVETPDTPRIATRKYASKMKKLAPFVTYFLPNSIPYVNTGQEIGEKQPMNLGLDTDPNLRKVLSPTDEFFGKLAFFDHYVLHWDSPDRGVLNFIKKLIKVRHEFLDFVLNGKFENLTTKDLVMYSYEKNGQKIVIAANVGKEPKEITGGRVWNGKWSDEEKVVLKPLEFALVVQE
GPLGSPQFMNPAAEAEFNILLATDSYKVTHYKQYPPNTSKVYSYFECREKKTENSKLRKVKYEETVFYGLQYILNKYLKGKVVTKEKIQEAKDVYKEHFQDDVFNEKGWNYILEKYDGHLPIEIKAVPEGFVIPRGNVLFTVENTDPECYWLTNWIETILVQSWYPITVATNSREQKKILAKYLLETSGNLDGLEYKLHDFGYRGVSSQETAGIGASAHLVNFKGTDTVAGLALIKKYYGTKDPVPGYSVPAAEHSTITAWGKDHEKDAFEHIVTQFSSVPVSVVSDSYDIYNACEKIWGEDLRHLIVSRSTQAPLIIRPDSGNPLDTVLKVLEILGKKFPVTENSKGYKLLPPYLRVIQGDGVDINTLQEIVEGMKQKMWSIENIAFGSGGGLLQKLTRDLLNCSFKCSYVVTNGLGINVFKDPVADPNKRSKKGRLSLHRTPAGNFVTLEEGKGDLEEYGQDLLHTVFKNGKVTKSYSFDEIRKNAQLNIELEAAHH
KSYASTPELRKTWLDSMARIHVKNGDLSEAAMCYVHVTALVAEYLTRKGVFRQGCTAFRVITPNIDEEASMMEDVGMQDVHFNEDVLMELLEQCADGLWKAERYELIADIYKLIIPIYEKRRDFERLAHLYDTLHRAYSKVTEVMHSGRRLLGTYFRVAFFGQGFFEDEDGKEYIYKEPKLTPLSEISQRLLKLYSDKFGSENVKMIQDSGKVNPKDLDSKYAYIQVTHVIPFFDEKELQERKTEFERSHNIRRFMFEMPFTQTGKRQGGVEEQCKRRTILTAIHCFPYVKKRIPVMYQHHTDLNPIEVAIDEMSKKVAELRQLCSSAEVDMIKLQLKLQGSVSVQVNAGPLAYARAFLDDTNTKRYPDNKVKLLKEVFRQFVEACGQALAVNERLIKEDQLEYQEEMKANYREMAKELSEIMHEQLG

Soluble on expression in E. coli, not soluble:
MSLKIYESYEDLPKLKLPYGNEVFISDSTIRDGSQMPGIVLSREHKIQIYEYLHEIGIEKLEAFVFNKRDRDAVDLMFDKGYEFPEITGWARSSRADIDKILEVDGIEETGILMSVSDTHIHSKMRLSGREEAEERYLDALQYAVDHGLKTRAHLEDMTRADNYGFVFPLVKKIMEIDPDCIIRVCDTVGYGMPFMNIDEPYGIPKIIQHLKKEIGVKNIETHIHDDYGFGSASSIAGFWHGANWTSVTFLGIGERAGNSEMEKILLFLADRVEGFDKYNLEPVTRFAEFMEKELGLRVPRNKAVVGKNIFAHESGIHAAGVLKNPFNYEPYPPELVGGTRLLLIGDSSGLEVIRYKVQETLNNLLDVETVVEKDDRRLLKIQKEIQKLYDKEERVSCISDEELLAYVEKYFLYQPISDPARTGRGKLKNRGKIQEPVEEKEGHHHHHH
MNRVKYTIKCTILQGKIKERLIKNIHLNEMNLRNWSTLKWSTRV
MGSDKIHHHHHHMPGQLKVTLLDSPNPLSKANPIHLKPLVNHCMDCRVSGLCLPTGLPVDENSCLGALIGPRMRIRKGAALFNANDPLTMLYALRCGSFKTSLNTAEGQGVVINFWMPGDVIGLDAIATEHHVCDAIALEDSEVCPVPYRRLQTLAREFPDLQQSLNRLMSREIVREHGRVLMLCNLTAEQRLASFLVGLSRRFVSRGYSAHGFMLRMSREDMASYLGLRLETVCRSVARLRALGIVDLHGRLVEILDMPALMALEQGGGECEAKGP
MKRGDIAHGLRLSGFKSLFPFSLHWCHTASKSVNCTWHQHEDHLELQYASTVMRFDYVWLRDHCRSASCYNSKTHQRSLDTASVDLCIKPKTIRLDESTLFFTWPDGHVTRYDLDWLVKNSYEGQKQEVIQPRVLWNAKLYQDAQLPSVDFQGFLETKEGLKKFLQNFLLYGIAFVENVPPTQEHTEKLARRVSLIRETIYGRMWYFTSDFSRGDTAYTKLALDRHTDTTYFQEPCGIQVFHCLKHEGTGGRTLLVDGFYAAQQVLQRAPEEFDLLSQVPLKHEYIENVGQCHNHMIGVGPILNIYPWNKELYLIRYNNYDRAVINTVPYDVVRRWYAAHRTLTTELRRPENELWVKLKPGKVLFIDNWRVLHGRESFTGYRQLCGCYLTRDDVLNTARILGLHA
MSAPVQCPIHPDVHLIEDHRAGDLVCPACGLVVGDRLVDVGTEWRSFSNERSGNDPSRVGAPENPLLSGGDLSTTIAVGFGGSDSDNSLANAQRKSMNNTDRQMTAAMSLIREMSERIHLPRNIQDSASRIFKDVLESKALRGKNNEAQAAACLYIACRKDGVPRTFKEICAVSRVSKKEIGRCFKIIVRSLETNLEQITSADFMSRFCGNLSLPNSIQAAATRIAKCAVDMDLVAGRTPISIAAAAIYMASQASAEKRSAKEIGDVAGAAEITVRQTYKLLYPKALELFPKDFRFVTPIDALPNS
MGHHHHHHSHMIQPRLLADAIVLFTSSQEEVTLAVTPLNFCLKSSNEESMDLSNAVHSEMFVGSDEFDFFQIGMDTEITFCFKELKGILTFSEATHAPISIYFDFPGKPLALSIDDMLVEANFILATLADEQSRASSPQSLCLSQKRKRSDLIEKKAGKNVTGQALECISKKAAPRRLYPKETLTNISALENCGSPAMKRVDGDVSEVSESSVSNTEEVPGSLCLRKFSCMFFGAVSSDQQEHFNHPFDSLARASGSEEDMNNVCCRKEFNGSDAEYFCII
MSSKNSLSDKIKITFQYIMPKHAISRLVGKLAAAKMGWLTTKLISMFIKAYGINMNEAKLKKASDFDTFNNFFTRELEEGARIIDNDENTICYPVDGAISQQGDIIDGQLIQAKGFNYSVTSLLGGDEKTAAPFQGGKFSCIYLAPKDYHRIHMPMAATLREMIYVPGELFSVNPLTAQNVPDLFARNERVVAIFDTEMGELAMVLVGATIVASIETTWAGTITPPAGKDIFRWQYPKDGADAITFEKGDEMGRFKLGSTVVSTFAPNMISEFATDAGPGTVTRLGEIYAALDKSASLEHHHHHH
MLILSEQEIQRLYTMEEAISDVKEILRQKQAGNVNTPERTVLSFPHYDASILYMPSVKTGAAAVKVVSIFPHNPPLGKPTTQGVIILTDTKTEEHRMLCNATYLTRLRTGALSAIAADYLAKREASRLAVIGTGAMAREQVAGMLEVRGIEHIFLYNRTRSKAERFALEGW
KIQEWLGESDYSDFLSVVEAVHDSGPSFVLQAMKSLDKYDAMMCISVDSMVNRIQELIDDTMVMSTNNPWGVIPSEGGAGLIFCRRNTVETLKLKPLAQLGYIDTELNTSDRRGMYRLVQRASKKLTAFGEVYSDMTNLRAHSEDYGFALGAKAERFINPEQPLLINE
MSRIGLQQLNNSARNSPFGSEKATGTKQIPEPLKLTAQLKKYQPITPSPLASATTITPVLSPFDVFCDDDQEAKNVETQMFEYGTVSTQTIINVPHVQPKITEADLTSEKPTVNYLRVMADRLQMDLDDEMDRNQRLVAELGDLDEKMRKIDDDTEILLEVLADIDEEQQTDEEIGTAQL
